This note sets out measurements from patent US5753621A, “Pulmonary surfactant protein fragments” (Abbott Laboratories, priority 1995, dated 1998).

Common to all, as to format: physicochemical
Data set [1] in a line: Dynamic surface tension versus compressed surface area, modified Wilhelmy Surface Balance (Langmuir Trough). To be noted: peptide 0.5 mg/ml (~2% of solids) in DPPC:PG:PA 68:22:9; 675 ug phospholipid on 445 sq. cm trough; recorded during seven complete cycles. The protocol:
(§1) Prior to testing for surface activity, the synthetic fragments were admixed with lipids. A lipid mixture consisting of 68% 1,2-dipalmitoyl-sn-phosphatidylcholine (DPPC), 22% egg phosphatidylglycerol (PG) and 9% palmitic acid on a weight basis was prepared by dissolving the lipids in chloroform:methanol (2:1). The required amount of peptide fragment was dissolved in methanol and heated to 60° C. for 10 minutes. The peptide solution was then added to the lipid mixture prewarmed to 45° C. for ten minutes. The samples were mixed at 45° C. by gentle swirling at 100 revolutions per minute on a Buchi rotary evaporator. The organic solvents were then evaporated at 45° C. by increasing the vacuum in 100 torr increments every five minutes until most of the solvent was removed. Final vacuum was between 150-200 torr. Following evaporation, the solids were then suspended in 10% ethanol prewarmed to 45° C. and which was prepared using deionized distilled water. The suspension was gently mixed with vortexing and placed back under vacuum at 600 torr with a repeat of the vacuum ramping process. Final vacuum for the ethanol removal was 50 torr. Following complete removal of ethanol the suspension was diluted with aqueous 0.15M NaCl at 45° C. to yield an admixture with a phospholipid concentration of 25 mg/ml. The peptide/lipid admixtures were formed at final peptide concentrations of 0.5 mg/ml (equivalent to 2% of solids concentration).
The dynamic surface tension lowering properties of the peptide/lipid admixtures were studied using a modified Wilhelmy Surface Balance (Langmuir Trough). The instrument consists of an all Teflon trough and movable Teflon ribbon (dam) barrier system which completely contains and defines a variable surface area. Surface area was varied through the use of a constant rate reversible 3-phase motor to drive the Teflon barrier. A Cahn 2000 electrobalance (Cahn Instruments, Cerittos, Calif.) with a sandblasted 1 cm platinum plate and stainless steel hangdown wire was employed to determine the surface tension at the liquid-air interface. The entire apparatus was situated in a thermostated incubator set at 45° C. Surface area-surface tension measurements were made by adding 950 ml of 0.15M NaCl to the trough. Subphase temperature was controlled during the measurements at 36°-38° C.
For each experiment 27 ul of peptide/lipid admixture was applied in a random array of 13 droplets to the surface of the temperature controlled subphase and allowed to spread spontaneously for 3 minutes. (The 27 ul application corresponds to 675 ug of phospholipid). The trough surface area was then cycled from a maximum (445 sq. cm) to a minimum (178 sq. cm) surface area and back to maximum at a cycling rate of 3 cycles/min (compression ratio 2.5:1). The dynamic surface tension versus surface area was recorded for 7 complete compression-expansion cycles for each application.

Data set [2] is described as follows: Pulsating Bubble Surfactometer (PBS) surface tension. To be noted: after 5 minutes pulsation (100 cycles); 1 mg/ml phospholipid, peptide 2% of phospholipids; 0.15M NaCl; 37° C.; 20 cycles/minute; SD in parenthesis. How it is done:
as §1
The PBS equipment (Electronetics, Buffalo, N.Y.) used was essentially equivalent to that described in detail by G. Enhorning, J. Appld. Physiol. 43, 198-203, (1977). Recordings were made of the pressure gradient across the wall of a small air bubble, communicating with ambient air by means of a narrow chimney stack, but otherwise entirely surrounded by a 40 ul volume of the peptide/lipid admixture. The admixture concentration employed for these studies was 1 mg/ml total phospholipid (0.02 mg/ml total peptide) and the diluent was 0.15M NaCl.
Immediately prior to loading the sample chamber, the diluted samples were sonicated for 15 seconds to remove any gas nuclei.
The pressure drop across the air-water interface was measured during pulsation by a pressure transducer, and the corresponding surface tension was determined at minimum and maximum bubble size through the application of Young's law and the Laplace equation. Measurements were all made at 37° C. and the bubble pulsed at 20 cycles/minute to render respectively a maximum (1.1 mm) and a minimum (0.8 mm) bubble diameter. (This compression/expansion corresponds to a 50% change in the surface area of the air-water interface).

A short description of data set [3]: Relative surface activity by dilution studies on the modified Wilhelmy Balance-Langmuir Trough. The conditions noted are these: for Mean Minimum Surface Tension, relative peptide concentration 1/2: 1/2 dilution of equimolar stock with lipid mixture; for Mean Minimum Surface Tension, relative peptide concentration 1/2 / Mean Minimum Surface Tension, relative peptide concentration 1/4 / Mean Minimum Surface Tension, relative peptide concentration 1/8 / Mean Minimum Surface Tension, relative peptide concentration 1/16 / Mean Minimum Surface Tension, relative peptide concentration Equimolar / Mean Minimum Surface Tension, relative peptide concentration 2%: 675 ug phospholipid; for Mean Minimum Surface Tension, relative peptide concentration 1/4: 1/4 dilution of equimolar stock with lipid mixture; for Mean Minimum Surface Tension, relative peptide concentration 1/8: 1/8 dilution of equimolar stock with lipid mixture; for Mean Minimum Surface Tension, relative peptide concentration 1/16: 1/16 dilution of equimolar stock with lipid mixture; for Mean Minimum Surface Tension, relative peptide concentration Equimolar: equimolar to 0.5 mg/mL SP-B(53-78); for Mean Minimum Surface Tension, relative peptide concentration Equimolar / Mean Minimum Surface Tension, relative peptide concentration 2%: 445 sq. cm trough; for Mean Minimum Surface Tension, relative peptide concentration 2%: peptide 2% of solids (0.5 mg/ml); for surface activity (in words): summary of Tables 3, 4 and 5. How it is done:
For the purpose of this comparison "surface activity" is defined as follows: For any given peptide concentration, the admixture is required to result in a minimum dynamic surface tension of less than 10 dynes/cm for each of seven consecutive expansion/compression cycles.
Initially each of the admixtures was formulated so as to contain an equal number of moles of the individual peptide as is contained in a 0.5 mg/mL admixture of SP-B(53-78). […] Thereafter, each of these admixtures was diluted with the standard lipid mixture as described in Example 4, so as to provide doubling dilutions of the equimolar "parent" stock peptide admixture. The lipid concentration in all cases was maintained at 25 mg/ml.
Assessment of relative surface activity was conducted on the modified Wilhemy-Langmuir Surface Balance. For these studies a standard volume of 27 ul of each admixture, corresponding to a total phospholipid mass of 675 ug, was applied to the Langmuir Trough with maximum dimensions of 445 sq. cm.

A short description of data set [4]: Adsorption capacity, modified Wilhelmy surface balance. To be noted: measured after three (3) minutes spreading time; peptide 0.5 mg/ml (~2% of solids). How it is done:
as §1
A procedure similar to that described by Notter, et al., Pediatric Res. 16, 515-519 (1982) was employed to determine the absorption rate in the absence of diffusion resistance. The modified Wilhelmy surface balance as described above was used. However, instead of using a Langmuir trough, a round Teflon dish (5.1 cm diameter) was employed. The subphase, 70 ml of 0.15M NaCl, was allowed to equilibrate to 37° C. in the incubator and was continuously stirred with a Teflon coated magnetic stirrer. An aliquot of the peptide/lipid fragment admixture containing 5 mg of total phospholipid was dispersed in 10 ml of 0.15M NaCl by vortexing for 10 seconds. This dispersion was then added to the saline subphase. Surface tension lowering was monitored using a strip chart recorder connected to the electro-balance output.

No end group written: not given here. *: point of attachment. Acm = CC(=O)NC*

Turning to “SP-B(53-78): replica of the 26 residue carboxyl terminal region of native human SP-B (YSVILLDTLLGRMLPQLVCRLVLRCS; Pulmonary surfactant-associated protein B; UniProt P07988 253-278, looked up, fragment)”, in data set [1], the “Surface Tension Maximum” value was found to be 50.4 dynes/cm and the “Surface Tension Minimum” value came out at 1.1 dynes/cm. Also, in data set [2], the “Surface tension Maximum (maximum bubble size)” value was 56.7 (2.9) dyne/cm and the “Surface tension Minimum (minimum bubble size)” value is given as 1.5 (0.6) dyne/cm. In addition, in data set [3], the “Mean Minimum Surface Tension, relative peptide concentration 1/2” value is 0.6 mN/m; the “Mean Minimum Surface Tension, relative peptide concentration 1/4” value is 0.5 mN/m; the “Mean Minimum Surface Tension, relative peptide concentration 1/8” value stood at 2.0 mN/m; the “Mean Minimum Surface Tension, relative peptide concentration 1/16” value was 14.5 mN/m. In data set [3], the “Mean Minimum Surface Tension, relative peptide concentration Equimolar” value came to 0.7 mN/m and the “Mean Minimum Surface Tension, relative peptide concentration 2%” value is on record as 0.1 mN/m. Besides, the “Adsorption (equilibrium adsorption surface tension)” value (from here on “Adsorption”) in data set [4] was 47.0 dynes/cm.
Regarding “SP-B(53-78)diAcm: SP-B positions 53-78, cysteines 71 and 77 capped with S-acetamidomethyl (Acm) groups (YSVILLDTLLGRMLPQLVC(Acm)RLVLRC(Acm)S; UniProt P07988 253-278, looked up, fragment)”, in data set [1], the “Surface Tension Maximum” value worked out at 49.5 dynes/cm and the “Surface Tension Minimum” value came out at 0.1 dynes/cm. Further, in data set [2], the “Surface tension Maximum (maximum bubble size)” value was 54.1 (2.6) dyne/cm and the “Surface tension Minimum (minimum bubble size)” value was 4.1 (3.1) dyne/cm. In data set [3], the “Mean Minimum Surface Tension, relative peptide concentration 2%” value is reported as 0.1 mN/m and the “surface activity (in words)” value is “unusual surface activity”. Also, the “Adsorption” value in data set [4] turned out to be 47.0 dynes/cm.
With “SP-B(58-78)diAla: SP-B positions 58-78, cysteines 71 and 77 replaced by alanine (LDTLLGRMLPQLVARLVLRAS; Pulmonary surfactant-associated protein B; UniProt P07988 258-278, looked up, variant C71A C77A)”, in data set [1], the “Surface Tension Maximum” value came out at 57.0 dynes/cm and the “Surface Tension Minimum” value was determined as 0.2 dynes/cm. In data set [2], the “Surface tension Maximum (maximum bubble size)” value is 52.0 (3.3) dyne/cm and the “Surface tension Minimum (minimum bubble size)” value is recorded as 7.5 (1.2) dyne/cm. In addition, in data set [3], the “Mean Minimum Surface Tension, relative peptide concentration 1/2” value amounted to 0.3 mN/m; the “Mean Minimum Surface Tension, relative peptide concentration 1/4” value is 1.5 mN/m; the “Mean Minimum Surface Tension, relative peptide concentration 1/8” value is on record as 4.7 mN/m; the “Mean Minimum Surface Tension, relative peptide concentration 1/16” value is on record as 24.1 mN/m. For the same substance, in data set [3], the “Mean Minimum Surface Tension, relative peptide concentration Equimolar” value is 0.0 mN/m; the “Mean Minimum Surface Tension, relative peptide concentration 2%” value amounted to 0.2 mN/m; the “surface activity (in words)” value was “unusual surface activity”. For the same substance, the “Adsorption” value in data set [4] worked out at 39.7 dynes/cm.
For “SP-B(66-78): synthesized SP-B peptide fragment, positions 66-78, 13 amino acids (LPQLVCRLVLRCS; not fully specified; cysteine pairing not given here; UniProt P07988 266-278, looked up, fragment)”, in data set [1], the “Surface Tension Maximum” value was 50.7 dynes/cm and the “Surface Tension Minimum” value is recorded as 0.7 dynes/cm. In data set [2], the “Surface tension Maximum (maximum bubble size)” value is listed as 61.5 (5.4) dyne/cm and the “Surface tension Minimum (minimum bubble size)” value is recorded as 9.4 (1.4) dyne/cm. In addition, in data set [3], the “Mean Minimum Surface Tension, relative peptide concentration 1/2” value is 2.8 mN/m; the “Mean Minimum Surface Tension, relative peptide concentration 1/4” value is on record as 6.7 mN/m; the “Mean Minimum Surface Tension, relative peptide concentration 1/8” value was determined as 14.9 mN/m; the “Mean Minimum Surface Tension, relative peptide concentration 1/16” value is recorded as 22.0 mN/m. Moreover, in data set [3], the “Mean Minimum Surface Tension, relative peptide concentration Equimolar” value was found to be 0.6 mN/m and the “Mean Minimum Surface Tension, relative peptide concentration 2%” value was found to be 0.7 mN/m. For the same substance, the “Adsorption” value in data set [4] was determined as 47.5 dynes/cm.
For the substance “SP-B(66-78)diLys: SP-B positions 66-78, cysteines 71 and 77 replaced with lysine (LPQLVKRLVLRKS; Pulmonary surfactant-associated protein B; UniProt P07988 266-278, looked up, variant C71K C77K)”, in data set [1], the “Surface Tension Maximum” value was 56.5 dynes/cm and the “Surface Tension Minimum” value worked out at 2.6 dynes/cm. In data set [2], the “Surface tension Maximum (maximum bubble size)” value is given as 55.1 (6.6) dyne/cm and the “Surface tension Minimum (minimum bubble size)” value is recorded as 1.8 (0.5) dyne/cm. In data set [3], the “Mean Minimum Surface Tension, relative peptide concentration 1/2” value was 8.2 mN/m; the “Mean Minimum Surface Tension, relative peptide concentration 1/4” value amounted to 7.0 mN/m; the “Mean Minimum Surface Tension, relative peptide concentration 1/8” value is on record as 15.0 mN/m; the “Mean Minimum Surface Tension, relative peptide concentration 1/16” value came to 23.0 mN/m. In addition, in data set [3], the “Mean Minimum Surface Tension, relative peptide concentration Equimolar” value is on record as 2.5 mN/m and the “Mean Minimum Surface Tension, relative peptide concentration 2%” value is on record as 2.6 mN/m. In addition, the “Adsorption” value in data set [4] is listed as 48.9 dynes/cm.
As to “SP-B(69-78): synthesized SP-B peptide fragment, positions 69-78, 10 amino acids (LVCRLVLRCS; Pulmonary surfactant-associated protein B; UniProt P07988 269-278, looked up, fragment)”, in data set [1], the “Surface Tension Maximum” value stood at 65.0 dynes/cm and the “Surface Tension Minimum” value amounted to 6.3 dynes/cm. Besides, in data set [2], the “Surface tension Maximum (maximum bubble size)” value is 64.0 (5.0) dyne/cm and the “Surface tension Minimum (minimum bubble size)” value is 27.3 (0.5) dyne/cm. Moreover, in data set [3], the “Mean Minimum Surface Tension, relative peptide concentration 1/2” value turned out to be 12.5 mN/m; the “Mean Minimum Surface Tension, relative peptide concentration 1/4” value was determined as 13.8 mN/m; the “Mean Minimum Surface Tension, relative peptide concentration 1/8” value was 12.2 mN/m; the “Mean Minimum Surface Tension, relative peptide concentration Equimolar” value stood at 13.3 mN/m. Further, the “Mean Minimum Surface Tension, relative peptide concentration 2%” value in data set [3] amounted to 6.3 mN/m. In data set [4], the “Adsorption” value is recorded as 56.5 dynes/cm.
